Assay results published in patent publication US11155602B2, “Polypeptides targeting HIV fusion” (priority 2015, dated 2021).
Residue numbers refer to the chain shown, from its start.

B1: 116 (protein)
chain: MASTSGVSDVPRDLEVVAATPTSLLISWDAPAVTVEQYYIAYYVEGEPSSYQYFRVPGSKSTATISGLKPGVLYHIYVNAVTGSGLRPEFSLPIRIKYRTEGSGSHHHHHH
modifications: Adnectin
B2: 149 (protein)
chain: MGHHHHHHGGSVSDVPRDLEVVAATPTSLLISWEYKVHPYRYYRITYGETGGNSPVQEFTVPSVLSTATISGLKPGVDYTITVYAVTYGKDSAPISINYRTEID
modifications: Adnectin
B3: 117 (protein)
chain: B2 chain with K90D
modifications: Adnectin
B4: 173 (protein)
chain: B2 chain with S11A, H38N, Y40W, K90V, D91H, A93S
modifications: Adnectin
B5: 172 (protein)
chain: B2 chain with H38D, K90I, A93S
modifications: Adnectin
B6: 174 (protein)
chain: B2 chain with K36N, H38N, P39A, K90I, D91I, A93E
modifications: Adnectin
B7: 180 (protein)
chain: B2 chain
modifications: Adnectin
B8: 153 (protein)
chain: B2 chain with T69Q, K90D
modifications: Adnectin
B9: 170 (protein)
chain: B2 chain with H38S, Y88F, K90I, D91R, A93S
modifications: Adnectin
B10: 168 (protein)
chain: B2 chain with H38N, P39A, K90V, D91L, A93P
modifications: Adnectin
B11: 164 (protein)
chain: B2 chain with E34K, K36Q, P39A, K90V, D91Y
modifications: Adnectin
B12: 176 (protein)
chain: B2 chain with P39H, Y40D, K90I, D91E, A93S
modifications: Adnectin
B13: 171 (protein)
chain: B2 chain with E34K, K36Q, P39A, K90I, D91I, A93E
modifications: Adnectin
B14: 162 (protein)
chain: B2 chain with T67S, T69Q, K90D
modifications: Adnectin
B15: 177 (protein)
chain: B2 chain with K90D, N98P, E102P, I103G, D104G
modifications: Adnectin
B16: 175 (protein)
chain: B2 chain with P39Y, Y40D, K90V, D91Q, A93T
modifications: Adnectin
B17: 166 (protein)
chain: B2 chain with E34K, K36N, V37L, K90I, D91I, A93E
modifications: Adnectin
B18: 169 (protein)
chain: B2 chain with K36N, H38N, Y88R, K90V
modifications: Adnectin
B19: 179 (protein)
chain: B2 chain with K90D, A93R
modifications: Adnectin
B20: 167 (protein)
chain: B2 chain with K36R, H38N, K90V, D91Q, A93P
modifications: Adnectin
B21: 161 (protein)
chain: B2 chain with T67S, T69E, K90D
modifications: Adnectin
B22: 159 (protein)
chain: B2 chain with K90D, N98P, E102P, I103G, D104G
modifications: Adnectin
B23: 163 (protein)
chain: B2 chain with D18Y, E34Q, Y42W, K90V, D91N, A93I
modifications: Adnectin
B24: 165 (protein)
chain: B2 chain with H38N, K90V, D91H, A93S
modifications: Adnectin
B25: 119 (protein)
chain: MGVSDVPRDLEVVAATPTSLLISWDAPAVTVGWYHIGYNVEGEPASYQYFRVPGSKSTATISGLKPGVEYMIFVNAVTGSGAREEFSLPISINYRTEGSGSHHHHHH
modifications: Adnectin
B26: 141 (protein)
chain: MGVSDVPRDLEVVAATPTSLLISWQYKVHPYRYYRITYGETGGNSPVQEFTVPSVLSTATISGLKPGVDYTITVYAVTYGIQSPPISINYRTEIDKPSQHHHHHH
modifications: Adnectin
B27: 150 (protein)
chain: B26 chain with Q25E, K27N, H29N, I81V, Q82E, P84S
modifications: Adnectin
B28: 148 (protein)
chain: B26 chain with Q25E, K27N, H29N, Q82D
modifications: Adnectin
B29: 154 (protein)
chain: B26 chain with Q25E, K27N, H29N, I81V, Q82N, P84L
modifications: Adnectin
B30: 152 (protein)
chain: B26 chain with Q25E, K27N, H29N, I81V, P84D
modifications: Adnectin
B31: 118 (protein)
chain: B26 chain with Q25K, I81V, Q82N, P84L
modifications: Adnectin
B32: 147 (protein)
chain: B26 chain with Q25E, I81V, Q82D, P84D
modifications: Adnectin
B33: 157 (protein)
chain: B26 chain with I81V, Q82N, P84I
modifications: Adnectin
B34: 142 (protein)
chain: B26 chain with Q25R, K27R, Y79D, I81V, P84S
modifications: Adnectin
B35: 156 (protein)
chain: B26 chain with Q25E, H29N, Y31W, Q82E, P84S
modifications: Adnectin
B36: 145 (protein)
chain: B26 chain with Q25E, I81V, Q82N, P84L
modifications: Adnectin
B37: 143 (protein)
chain: B26 chain with Q25E, K27N, H29N, Q82E, P84S
modifications: Adnectin
B38: 160 (protein)
chain: B26 chain with Q25E, H29D, I81V, Q82E, P84S
modifications: Adnectin
B39: 151 (protein)
chain: B26 chain with Q25E, Q82D, P84S
modifications: Adnectin
B40: 155 (protein)
chain: B26 chain with Y79H, I81V, Q82H, P84A
modifications: Adnectin
B41: 158 (protein)
chain: B26 chain with Q25E, P30Y, Y31D
modifications: Adnectin
B42: 146 (protein)
chain: B26 chain with Q25E, Q82D
modifications: Adnectin
B43: 144 (protein)
chain: B26 chain with I81V, Q82E, P84S
modifications: Adnectin

tested on: NL-Rluc virus; experiment: Combinectin potency assay: antiviral EC50, NL-Rluc virus in MT-2 cells, luciferase readout; assay type: cell-based, HIV-1; settings: Anti-N17 Adnectin, Table 3
Protocol: MT-2 cells, HEK 293T cells and the proviral DNA clone of […] were obtained from the NIH AIDS Research and Reference Reagent Program. MT-2 cells were propagated in RPMI 1640 medium supplemented with 10% heat-inactivated fetal bovine serum (FBS), 10 mM HEPES buffer pH 7.55, and 2 mM L-glutamine. HEK 293T cells were propagated in DMEM media supplemented with 10% heat-inactivated FBS, 10 mM HEPES buffer pH 7.55 and 2 mM L-glutamine. Recombinant NL-Rluc virus, in which a section of the nef gene from the proviral clone of NL4-3 was replaced with the Renilla luciferase gene, was constructed at Bristol-Myers Squibb. The replication-competent virus was harvested 3 days after transfection of HEK 293T cells with the modified pNL-Rluc proviral clone. Transfections were performed using Lipofectamine Plus (Invitrogen, Carlsbad, Calif.), according to manufacturer's instruction. Virus was titered in MT-2 cells using luciferase enzyme activity as a biomarker. The NL-Rluc virus used to infect MT-2 cells a multiplicity of 0.01 for 1 hour before adding to the peptides in 96-well plates. Peptides were serially diluted three-fold and 11 concentrations were plated in triplicate. After 4-5 days of incubation, cells were processed and quantitated for virus growth by the amount of expressed luciferase. Luciferase was quantitated using the Dual Luciferase kit from Promega (Madison, Wis.), with modifications to the manufacturer's protocol. The diluted Passive Lysis solution was pre-mixed with the re-suspended Luciferase Assay Reagent and then re-suspended in STOP & GLO® Substrate (2:1:1 ratio). A total of […] of the mixture was added to each aspirated well on assay plates and luciferase activity was measured immediately on a Wallac TriLux (Perkin-Elmer, Waltham, Mass.). The 50% effective concentration (EC50) was calculated by comparing the amount of luciferase produced in the presence of inhibitory peptide compared to wells where no peptide was added.

Molecule	EC50 [nM]
B1	50
B2	3
B3	42
B4	5
B5	5
B6	5
B7	> 1000
B8	8
B9	5
B10	42
B11	35
B12	> 1000
B13	35
B14	35
B15	252
B16	5
B17	50
B18	5
B19	> 1000
B20	42
B21	13
B22	23

Molecule	EC50 [nM]
B23	35
B24	42
B25	> 1000
B26	3
B27	18
B28	14
B29	8
B30	20
B31	28
B32	28
B33	43
B34	55
B35	43
B36	11
B37	20
B38	58
B39	11
B40	9
B41	85
B42	11
B43	20
